T1: human CD300E-Fc (human)
T1 construct: hIgG1-Fc fusion; the entry is the whole fusion chain
T1 chain: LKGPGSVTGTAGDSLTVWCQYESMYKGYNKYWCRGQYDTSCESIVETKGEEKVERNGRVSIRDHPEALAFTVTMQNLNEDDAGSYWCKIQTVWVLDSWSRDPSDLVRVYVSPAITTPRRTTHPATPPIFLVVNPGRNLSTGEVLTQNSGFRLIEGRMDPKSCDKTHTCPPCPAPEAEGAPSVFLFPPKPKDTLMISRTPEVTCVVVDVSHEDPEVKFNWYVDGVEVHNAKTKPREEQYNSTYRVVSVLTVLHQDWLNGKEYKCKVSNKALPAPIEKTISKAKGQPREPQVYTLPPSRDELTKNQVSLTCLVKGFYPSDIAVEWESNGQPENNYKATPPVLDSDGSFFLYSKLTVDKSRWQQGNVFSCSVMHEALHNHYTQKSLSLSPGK

T2: human CD300LB on primary human monocytes (human, UniProt A8K4G0 18-201)
T2 construct: Endogenous protein on primary cells; that the target is CD300LB is inferred from the antibodies being anti-CD300LB antibodies; also called Monocyte donor 1281; Monocyte donor 1282
T2 sequence: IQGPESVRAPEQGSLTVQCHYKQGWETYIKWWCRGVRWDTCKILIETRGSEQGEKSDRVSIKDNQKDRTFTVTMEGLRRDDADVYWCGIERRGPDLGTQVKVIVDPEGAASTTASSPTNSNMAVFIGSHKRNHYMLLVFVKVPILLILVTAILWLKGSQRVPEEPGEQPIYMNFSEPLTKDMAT

T3: human CD300LB on primary human macrophages (human, UniProt A8K4G0 18-201)
T3 sequence: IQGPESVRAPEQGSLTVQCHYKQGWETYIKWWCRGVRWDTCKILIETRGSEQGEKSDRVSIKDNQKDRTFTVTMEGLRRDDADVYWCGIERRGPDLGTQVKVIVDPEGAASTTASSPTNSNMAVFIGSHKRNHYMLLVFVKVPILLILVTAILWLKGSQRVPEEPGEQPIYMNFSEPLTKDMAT

T4: recombinant human CD300LB overexpressed on Jurkat cells (human, UniProt A8K4G0 18-201)
T4 construct: also called huCD300LB; huCD300LB-expressing Jurkat cells
T4 sequence: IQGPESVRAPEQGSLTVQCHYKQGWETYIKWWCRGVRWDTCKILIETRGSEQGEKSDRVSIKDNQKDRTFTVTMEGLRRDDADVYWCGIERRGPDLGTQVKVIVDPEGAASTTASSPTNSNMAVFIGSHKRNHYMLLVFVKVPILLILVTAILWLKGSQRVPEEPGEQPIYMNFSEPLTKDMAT


How the values were obtained:
human CD300E-Fc = molecular target: T1, human CD300E-Fc; experiment: SPR (Carterra LSA), antibody immobilised, Fc fusion at 300 or 600 nM
Method: Binding of mouse anti-CD300LB IgG1 antibodies of the present disclosure to human and murine CD300 orthologs were evaluated by surface plasmon resonance (SPR) using a Carterra LSA instrument (Carterra, Salt Lake City, UT). […] A HC200M sensor chip (Carterra) was activated using the single channel flow cell with a 7-minute injection of a 1:1:1 mixture of 100 mM MES pH 5.5, 100 mM sulfo-NHS, 400 mM EDC (all reconstituted in MES pH 5.5; 100 μL of each mixed in vial immediately before running assay). After switching to the multi-channel array flow cell, the antibodies were injected over the activated chip in a 96-spot array for 10 minutes. The remaining unconjugated active groups on the chip were then blocked by injecting 1M Ethanolamine pH 8.5 (Carterra) for 7 minutes using the single channel flow cell. After priming with running buffer (HBS-TE, Carterra) with 0.5 mg/ml BSA (Sigma), the immobilized anti-CD300LB antibodies were tested for their ability to bind human and mouse recombinant CD300LB extracellular domains. Human CD300 family members and mouse CD300A were hIgG1-Fc fusions, while mouse CD300LB, mouse CD300C, mouse CD300D, and mouse CD300E were mouse IgG2a-Fc fusions (R&D Systems). Binding was assessed by injecting each analyte over the entire antibody array using the single channel flow cell. CD300 analytes were diluted to 300 nM or 600 nM in running buffer and injected in series without regeneration. Two or three buffer blanks were run between each mouse or human ortholog, respectively. Data were processed and analyzed using NextGenKIT high-throughput kinetics analysis software (Carterra).
Results of anti-CD300LB antibody binding to human CD300 family members is provided below in Table 7.

[1] = molecular target: T2, human CD300LB on primary human monocytes; experiment: flow cytometry, primary human monocytes donor 1284, 10 ug/mL antibody, isotype control subtracted
Method: (§1) Human monocytes from various donors were isolated from whole blood using RosetteSep Human Monocyte Enrichment Cocktail (Stemcell technologies) and Ficoll centrifugation per manufacturer protocols. After lysing red blood cells with ACK lysing buffer, monocytes were resuspended in complete media (RPMI, 10% FBS, Pen/Strep, L-glutamine, HEPES, non-essential amino acid, Sodium pyruvate). To obtain macrophages from these isolated monocytes, 100 ng/ml human M-CSF and 8% v/v human serum were added to the cells for 5-7 days. Cells were counted on the day of the experiment and plated at 100,000 cells per well in a round-bottom 96 well plate. Cells were incubated with TruStain Fc block and 10 μg/mL antibody for 1 hour on ice before washing with 250 μL ice cold PBS twice. Cells were then incubated with the appropriate APC-conjugated secondary antibodies for 20 minutes in the dark on ice. Finally, cells were washed twice with ice cold FACS buffer and then resuspended in 100 μL FACS buffer containing 1% propidium iodide. Samples were immediately analyzed using a BD FACSCanto flow cytometer. The gMFI was calculated using FlowJo software minus the gMFI of the appropriate isotype control.

[2] = molecular target: T2, human CD300LB on primary human monocytes; experiment: flow cytometry, primary human monocytes donor 1281, 10 ug/mL antibody, isotype control subtracted
Method: as §1

[3] = molecular target: T3, human CD300LB on primary human …; experiment: flow cytometry, primary human macrophages donor 1275, 10 ug/mL antibody, isotype control subtracted
Method: as §1

[4] = molecular target: T4, recombinant human CD300LB overexpressed …; experiment: flow cytometry on Jurkat cells overexpressing huCD300LB, apparent KD (Drake & Klakamp fit)
Method: Purified anti-CD300LB antibodies of the present disclosure were evaluated for their binding affinity to either Jurkat cells overexpressing recombinant huCD300LB or BaF/3 cells overexpressing recombinant muCD300LB. Binding of anti-CD300LB antibodies to the cells was determined as follows. Cells were harvested, washed, and labeled with propidium iodide for viability discrimination. After washing the cells with PBS, 1×10⁵ cells were aliquoted per well in 96-well U-bottom plates and incubated with 100 μL of purified anti-CD300LB antibody at various concentrations in FACS buffer (PBS+2% FBS). After this primary incubation, the supernatant was removed via centrifugation, the cells washed twice with 150 μL of ice-cold FACS buffer, and then incubated with the appropriate secondary antibody on ice for 30 minutes. Following the secondary antibody incubation, the cells were again washed twice with ice-cold FACS buffer and resuspended in a final volume of 200 L FACS buffer. Flow cytometry analysis was then performed using the FACSCanto system (BD Biosciences).
To determine affinity, antibodies at increasing concentrations were used to stain Jurkat cells overexpressing huCD300LB and geometric MFI values measured by the flow cytometer were analyzed on Prism (Graphpad) software.

Binder	SPR binding (control subtracted) (human CD300E-Fc)	gMFI [1] [gMFI]	gMFI [2] [gMFI]	gMFI [3] [gMFI]	Kd [4] [nM]
anti-CD300LB antibody CD-03 (antibody, V domains shown) VH: EVQLQQSGPELVKPGASVKISCKASGYTFTDYYINWVRQSHGKSLECIGDINPNNGGTNYNQKFKGKATLTVDRSSNTAYMEFRSLTFDDSALYYCAAEGAYWGQGTLVTVSA VL: not shown	0.18				
anti-CD300LB antibody CD-06 (antibody, V domains shown) VH: QVQLVQSGAEVKKPGASVKVSCKASGYTFTTYAVHWVRQAPGQGLEWMGIVNPNSGGTNYAQKFQGRVTMTRDTSTSTVYMELSSLRSEDTAVYYCARDIVPMNNFYNYYYGMDVWGQGTTVTVSS VL: DIQMTQSPSSLSASVGDRVTITCRASQSISSYLNWYQQKPGKAPKLLIYATSTLQSGVPSRFSGSGSGTDFTLTISSLQPEDFATYYCQQSYRIPYTFGQGTKVEIK		1010	1650	26900	329
anti-CD300LB antibody CD-05 (antibody, V domains shown) VH: QVQLVQSGAEVKKPGASVKVSCKASGYTFSRYYINWVRQAPGQGLEWMGWINPNSGGTNYAQKFQGRVTMTRDTSTSTVYMELSSLRSEDTAVYYCTTDQLRFGKTGPYYGMDVWGQGTTVTVSS VL: DIQMTQSPSSLSASVGDRVTITCRASQNIGTYLNWYQQKPGKAPKLLIYAASSLQSGVPSRFSGSGSGTDFTLTISSLQPEDFATYYCQQSYSDTLTFGGGTKVEIK	0.195	166	736	61000	15
anti-CD300LB antibody CD-02 (antibody, V domains shown) VH: QVQLQQPGAELVRPGSSVKLSCQASGYTFTNYWMHWVRQRPIQGLEWIGNIDPSDSETHYNQKFKDRATLTVDKSSSTAYMQLSSLTSEDSAVYYCARSGVYDDEGGDYWGQGTTLTVSS VL: ENVLTQSPAIMSASPGEKVTMTCSASSSVSYIHWYQQKSSTSPKLWIYDTSKLASGVPGRFSGSGSGNSYSLTISSMETEDVATYYCFQGSGYPLTFGAGTKLELK	0.62				64

Continued by falling Kd [4], values first:

SPR binding (control subtracted) (human CD300E-Fc)	gMFI [1] [gMFI]	gMFI [2] [gMFI]	gMFI [3] [gMFI]	Kd [4] [nM]	Binder
	-189	43	2700	66	anti-CD300LB antibody CD-07 (antibody, V domains shown) VH: QVQLVQSGAEVKKPGASVKVSCKASGYTFTNYRMHWVRQAPGQGLEWMGWINPNSGGTIYAQKFQGRVTMTRDTSTSTVYMELSSLRSEDTAVYYCARDLDYWGQGTLVTVSS VL: DIQMTQSPSSLSASVGDRVTITCQASQDISNYLNWYQQKPGKAPKLLIYGASSLQSGVPSRFSGSGSGTDFTLTISSLQPEDFATYYCQQSYSTPWTFGPGTKVEIK
-0.105				27	anti-CD300LB antibody CD-01 (antibody, V domains shown) VH: RVQLQQSGAELVRPGASVTLSCKASGFTFTDFEMHWVKKTPVHGLEWIGAIDPESGNTAYNQKFRGKATLTADKSSSTAYMELRYLTSEDSAVYYCTPLISGADYWGQGTTLTVSS VL: DVVMTQSPLSLPVSLGDQASISCRSSQSLVHSDGNTYLYWYLQKPGQSPKLLIYKVSNRFSGVPDRFSGSGSGTDFTFKISRVGAEDLGVYFCSQSTHVPWTFGGGTKLEII

Source: patent publication US20240254227A1 (Alector, published 2024)
